Results published in patent US20230126796.
Read-outs that look alike come from different tables or passages of the source.

T1: PAR4-B synthetic peptide
T1 chain: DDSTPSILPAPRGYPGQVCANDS

T2: PAR4-C synthetic peptide
T2 chain: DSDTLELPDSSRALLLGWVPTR

B1: cathepsin G (protein)
chain: IIGGRESRPHSRPYMAYLQIQSPAGQSRCGGFLVREDFVLTAAHCWGSNINVTLGAHNIQRRENTQQHITARRAIRHPQYNQRTIQNDIMLLQLSRRVRRNRNVNPVALPRAQEGLRPGTLCTVAGWGRVSMRRGTDTLREVQLRVQRDRQCLRIFGSYDPRRQICVGDRRERKAAFKGDSGGPLLCNNVAHGIVSYGKSSGVPPEVFTRVSSFLPWIRTTMRS

Columns and labels:
PAR4-C synthetic peptide [1] = test system: PAR4-C synthetic peptide
PAR4-B synthetic peptide [2] = test system: PAR4-B synthetic peptide
PAR4-B synthetic peptide [3] = biological target: T1, PAR4-B synthetic peptide
PAR4-C synthetic peptide [4] = biological target: T2, PAR4-C synthetic peptide

| Molecule | proteolysis of the peptide, LC-MS/MS (PAR4-C synthetic peptide [1]) | proteolysis of the peptide, LC-MS/MS (PAR4-B synthetic peptide [2]) | proteolysis of the peptide, LC-MS/MS (PAR4-B synthetic peptide [3]) | proteolysis of the peptide, LC-MS/MS (PAR4-C synthetic peptide [4]) |
| --- | --- | --- | --- | --- |
| alpha-thrombin | thrombin failed to cleave PAR4-C | PAR4-B was cleaved by thrombin between amino acids Arg47 and Gly48 |  |  |
| B1 |  |  | little cleavage was observed with CatG | CatG cleavage generated several fragments, including DSDTLELPSS |
